According to patent US9499823B2, “Constructs expressing chimeric receptors and use thereof for the controlled activation of defence response to pathogens in plants” (priority 2009, dated 2016):
“Also recorded” adds a separate entry of the source.

B1: EFR: Arabidopsis LRR receptor kinase Elongation Factor Tu Receptor (AT5G20480); GFP-fused control (protein)
chain: RFSNETDMQALLEFKSQVSENNKREVLASWNHSSPFCNWIGVTCGRRRERVISLNLGGFKLTGVISPSIGNLSFLRLLNLADNSFGSTIPQKVGRLFRLQYLNMSYNLLEGRIPSSLSNCSRLSTVDLSSNHLGHGVPSELGSLSKLAILDLSKNNLTGNFPASLGNLTSLQKLDFAYNQMRGEIPDEVARLTQMVFFQIALNSFSGGFPPALYNISSLESLSLADNSFSGNLRADFGYLLPNLRRLLLGTNQFTGAIPKTLANISSLERFDISSNYLSGSIPLSFGKLRNLWWLGIRNNSLGNNSSSGLEFIGAVANCTQLEYLDVGYNRLGGELPASIANLSTTLTSLFLGQNLISGTIPHDIGNLVSLQELSLETNMLSGELPVSFGKLLNLQVVDLYSNAISGEIPSYFGNMTRLQKLHLNSNSFHGRIPQSLGRCRYLLDLWMDTNRLNGTIPQEILQIPSLAYIDLSNNFLTGHFPEEVGKLELLVGLGASYNKLSGKMPQAIGGCLSMEFLFMQGNSFDGAIPDISRLVSLKNVDFSNNNLSGRIPRYLASLPSLRNLNLSMNKFEGRVPTTGVFRNATAVSVFGNTNICGGVREMQLKPCIVQASPRKRKPLSVRKKVVSGICIGIASLLLIIIVASLCWFMKRKKKNNASDGNPSDSTTLGMFHEKVSYEELHSATSRFSSTNLIGSGNFGNVFKGLLGPENKLVAVKVLNLLKHGATKSFMAECETFKGIRHRNLVKLITVCSSLDSEGNDFRALVYEFMPKGSLDMWLQLEDLERVNDHSRSLTPAEKLNIAIDVASALEYLHVHCHDPVAHCDIKPSNILLDDDLTAHVSDFGLAQLLYKYDRESFLNQFSSAGVRGTIGYAAPEYGMGGQPSIQGDVYSFGILLLEMFSGKKPTDESFAGDYNLHSYTKSILSGCTSSGGSNAIDEGLRLVLQVGIKCSEEYPRDRMRTDEAVRELISIRSKFFSSKTTITESPRDAPQSSPQEWMLNTDMHTM
B2: WEG: chimeric receptor: WAK1 ectodomain fused to the TM-iJM-kinase portion of EFR, GFP-fused (protein)
chain: QHQPGENCQNKCGNITIEYPFGISSGCYYPGNESFSITCKEDRPHVLSDIEVANFNHSGQLQVLLNRSSTCYDEQGKKTEEDSSFTLENLSLSANNKLTAVGCNALSLLDTFGMQNYSTACLSLCDSPPEADGECNGRGCCRVDVSAPLDSYTFETTSGRIKHMTSFHDFSPCTYAFLVEDDKFNFSSTEDLLNLRNVMRFPVLLDWSVGNQTCEQVGSTSICGGNSTCLDSTPRNGYICRCNEGFDGNPYLSAGCQDVNECTTSSTIHRHNCSDPKTCRNKVGGFYCKCQSGYRLDTTTMSCKRKEVVSGICIGIASLLLIIIVASLCWFMKRKKKNNASDGNPSDSTTLGMFHEKVSYEELHSATSRFSSTNLIGSGNFGNVFKGLLGPENKLVAVKVLNLLKHGATKSFMAECETFKGIRHRNLVKLITVCSSLDSEGNDFRALVYEFMPKGSLDMWLQLEDLERVNDHSRSLTPAEKLNIAIDVASALEYLHVHCHDPVAHCDIKPSNILLDDDLTAHVSDFGLAQLLYKYDRESFLNQFSSAGVRGTIGYAAPEYGMGGQPSIQGDVYSFGILLLEMFSGKKPTDESFAGDYNLHSYTKSILSGCTSSGGSNAIDEGLRLVLQVGIKCSEEYPRDRMRTDEAVRELISIRSKFFSSKTTITESPRDAPQSSPQEWMLNTDMHTM
modifications: left off: large carriers

Experiments:
[1] = system: ethylene biosynthesis in tobacco leaves; assay: Induction of ethylene biosynthesis in agroinfiltrated tobacco leaf explants; format: cell-based, Nicotiana tabacum; details: for ethylene release induced by flg22: flg22, 2 h, compared with EFR-expressing explants as negative controls
Protocol: F) Induction of ethylene biosynthesis in agroinfiltrated tobacco leaves expressing the fluorescent EFR, FLS2, TMC, eJMC and eJMC^Y859A. NC: negative control, represented by agroinfiltrated leaf tissues expressing fluorescent EFR or FLS2 and elicited with flg22 or elfl8, respectively. Results are averages±standard error (n=3).
Excised infiltrated leaf sectors were stimulated for 2 h with water or the elicitor ([…] and 100 μg/ml for OGs). Values are means±s.e.m. (N=3).
E) Induction of ethylene biosynthesis in agroinfiltrated tobacco leaves expressing EFR, WAK1, WEG and EWAK. Each construct was stimulated for 2 h with elfl8 (10 μM) or OGs (100 μg/mL). NC: negative control, represented by agroinfiltrated leaf tissue expressing EFR or FLS2 when OGs or elfl8, respectively, were used for elicitation. Error bars indicate the standard error of three independent replicates.
(A) Induction of ethylene biosynthesis in agroinfiltrated tobacco explants expressing EFR, WAK1, WEG and EWAK. […] Agroinfiltrated leaf tissues expressing EFR or WEG and elicited with OGs or elfl8 respectively, represented our negative control. Values are means±s.e.m. (N=3). (B) Elicitor-induced gene expression in untransformed Col-0 and Col-0 efr plants, and in transgenic Arabidopsis Col-0 efr plants stably expressing WEG. Accumulation of At3g22270 and At4g37640 transcripts was analysed by semi-quantitative PCR, using the UBQ5 gene for normalization. Adult leaves were syringe-infiltrated with water, OGs (25 μg/ml) or elfl8 (10 μM) for 3 h. The experiment was repeated three times with similar results. The same experiment was performed in a second independent transgenic line expressing WEG with similar results.
Approximately 150 mg of tobacco agroinfiltrated leaf were cut in small slices and extensively washed with sterile distilled water. The explants were placed in sealed 10 mL flasks containing 2 mL of sterile water alone or supplemented with 100 mg L^−1 OGs, or 1 μM flg22 or 10 μM elfl8. 450 μl headspace samples were withdrawn from the vial after 2 h treatment and analyzed by gas chromatography-mass spectrometry using an Agilent 6850A gas chromatograph coupled to a 5973N quadrupole mass selective detector (Agilent Technologies, Palo Alto, Calif., USA). Chromatographic separations were carried out an HP Plot-Q fused-silica capillary column (30 m×0.32 mm i.d.) coated with polystyrene-divinylbenzene (film thickness 0.20 μm) as stationary phase. Injection mode: splitless at a temperature of 220° C. The initial temperature of the oven was held at 50° C. for 8 min then ramped to 220° C. at a rate of 15° C./min and held for 5 min. Helium was used as carrier gas at a constant flow of 1.0 ml/min. Mass spectra were collected both in full scan and in SIM mode monitoring the ions m/z m/z 26, m/z 27 and m/z 28 (ionization energy 70 eV; ion source 280° C.; ion source vacuum 10^−5 Torr).

[2] = system: Agrobacterium tumefaciens GV3101; assay: Growth of Agrobacterium in N. tabacum tissues transiently expressing receptor proteins; format: in vivo; details: 24 h after inoculation, tobacco tissues expressing the receptor
Protocol: F) Growth of Agrobacterium in N. tabacum tissues transiently expressing receptor proteins. Tobacco leaves were infiltrated with Agrobacterium expressing the indicated receptors and the number of Agrobacterium colony-forming units (c.f.u.) in the tissues was analyzed soon after infiltration (white bars) and 24 h (gray bars). EFR and eJMC were used as positive and negative controls, respectively. For each receptor, three samples were analyzed in five independent experiments. *, p<0.005.
(A) Growth of A. tumefaciens in N. tabacum tissues transiently expressing receptor proteins. Tobacco leaves were infiltrated with Agrobacterium carrying the indicated receptor constructs and the number of Agrobacterium colony-forming units (c.f.u.) in the tissues was analyzed immediately after infiltration (white bars) and after 24 h (gray bars). EFR and eJMC were used as positive and negative controls, respectively. For each receptor, three samples were analyzed in five independent experiments. Asterisks indicate statistically significant differences against control (Col-0 for WAK1 plants and Col-0 efr for WEG and EWAK plants). (B) Lesion development in Arabidopsis wild type (Col-0) and mutant Col-0 efr plants and in transgenic plants expressing WAK1, WEG and EWAK plants inoculated with B. cinerea at 48 h post-inoculation. Values are means±s.e.m. of at least 16 lesions. The same experiment was performed in a second independent transgenic line expressing WAK1 with similar results. Asterisks indicate statistically significant differences against control (Col-0 for WAK1 plants and Col-0 efr for WEG and EWAK plants).
Agrobacterium tumefaciens GV3101 strain infections was performed as described in Katagiri et al., (2002) and using a concentration of Agrobacterium corresponding at an OD600 of 1.0 in 10 mM MgCl2 and 600 μM acetosyringone. After 24 h of infiltration, serial dilution of Agrobacterium colonies were deposited on LB agar supplemented with gentamycin and rifampicin and grown for 2-3 days at 28° C. in the dark. At least 5 independent plants and 3 different leaves by plant, were used per experiment. Pectobacterium carotovorum subsp. carotovorum infections Pectobacterium carotovorum subsp. carotovorum (formely Erwinia carotovora; Gardan et al., 2003) (strain DMSZ 30169) was obtained from DSMZ GmbH (Germany). A liquid colture using 10 ml LB medium was prepared. After 16 h of growth at 28° C. on rotary shaker at 250 rpm, bacterial cells were harvested by centrifugation and the pellet was resuspended in 50 mM potassium phosphate buffer pH 7.0 corresponding to 5×10^7 CFU/ml.

Row | Molecule | ethylene release induced by flg22 [1] | ethylene accumulation upon stimulation with elfl8 ([1]; elfl8 10 μM, 2 h) | effect on the number of living Agrobacterium cells [2] | release of ethylene induced by elfl8 relative to negative control ([1]; elfl8 10 μM, 2 h, negative control FLS2-expressing explants) [times] | decrease in the number of living Agrobacterium cells ([2]; p<0.005) [%] | ethylene accumulation induced by OGs relative to negative control ([1]; OGs 100 μg/mL, 2 h, negative control OG-stimulated EFR-expressing tissues) [times]
1 | FLS2 [reference compound] | only a weak response |  |  |  |  | 
2 | eJMC: chimera (Arg806FLS2-Val650EFR): LRR and eJM domains of FLS2 fused upstream of TM, iJM and kinase domains of EFR, GFP-fused | significantly higher | did not | no significant effect; also recorded: No significant change |  |  | 
3 | B1 |  | accumulated ethylene |  | 3.8 | 30 | 
4 | B2 |  |  | no significant effect; also recorded: No significant change |  |  | 2.4
